T1: FX zymogen (UniProt P00742 41-179; P00742 183-488)
T1 chain 1: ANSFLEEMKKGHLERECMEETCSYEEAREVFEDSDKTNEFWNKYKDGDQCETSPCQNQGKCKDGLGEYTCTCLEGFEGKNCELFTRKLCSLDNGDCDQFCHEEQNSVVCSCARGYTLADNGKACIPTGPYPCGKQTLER
T1 chain 2: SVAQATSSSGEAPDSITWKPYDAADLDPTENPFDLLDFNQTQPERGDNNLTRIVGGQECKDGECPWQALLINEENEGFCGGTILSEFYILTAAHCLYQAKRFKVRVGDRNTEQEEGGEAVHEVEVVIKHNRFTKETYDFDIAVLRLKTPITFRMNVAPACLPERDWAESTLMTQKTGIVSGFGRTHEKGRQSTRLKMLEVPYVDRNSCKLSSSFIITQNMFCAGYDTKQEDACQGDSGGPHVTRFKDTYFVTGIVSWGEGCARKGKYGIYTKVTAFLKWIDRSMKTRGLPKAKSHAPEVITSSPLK


Target: T1, FX zymogen
Test: BLI

Binder	Kd
BIIB-12-1305 (antibody, V domains shown) VH: QVQLVESGGGVVQPGRSLRLSCAASGFTFSSYGMHWVRQAPGKGLEWVAVISYDGSNKYYADSVKGRFTISRDNSKNTLYLQMNSLRAEDTAVYYCAKLGGRWSSDFQHWGQGTLVTVSS VL: EIVLTQSPATLSLSPGERATLSCRASQSVSSYLAWYQQKPGQAPRLLIYDASNRATGIPARFSGSGSGTDFTLTISSLEPEDFAVYYCQQSANWPPTFGGGTKVEIK	38.8 nM
BIIB-12-1291 (antibody, V domains shown) VH: QVQLVQSGAEVKKPGASVKVSCKASGYTFTSYYMHWVRQAPGQGLEWMGIINPSGGSTSYAQKFQGRVTMTRDTSTSTVYMELSSLRSEDTAVYYCARSRRMWVGYFDLWGRGTLVTVSS VL: EIVLTQSPATLSLSPGERATLSCRASQSVSSYLAWYQQKPGQAPRLLIYDASNRATGIPARFSGSGSGTDFTLTISSLEPEDFAVYYCQQRLNLPLTFGGGTKVEIK	42.6 nM
BIIB-12-1299 (antibody, V domains shown) VH: not shown VL: EIVMTQSPATLSVSPGERATLSCRASQSVSSNLAWYQQKPGQAPRLLIYGASTRATGIPARFSGSGSGTEFTLTISSLQSEDFAVYYCQQLNNFPITFGGGTKVEIK	50.8 nM
BIIB-12-1304 (antibody, V domains shown) VH: QVQLVESGGGVVQPGRSLRLSCAASGFTFSSYGMHWVRQAPGKGLEWVAVISYDGSNKYYADSVKGRFTISRDNSKNTLYLQMNSLRAEDTAVYYCAKGPGSRRFDIWGQGTMVTVSS VL: EIVMTQSPATLSVSPGERATLSCRASQSVSSNLAWYQQKPGQAPRLLIYGASTRATGIPARFSGSGSGTEFTLTISSLQSEDFAVYYCQQANVLPLTFGGGTKVEIK	50.5 nM
BIIB-12-927 (antibody, V domains shown) VH: QVQLVQSGAEVKKPGASVKVSCKASGYTFTSYYMSWVRQAPGQGLEWMGIINPSGGSTSYAQKFQGRVTMTRDTSTSTVYMELSSLRSEDTAVYYCARDSGRKRYYYMDVWGKGTTVTVSS VL: EIVMTQSPATLSVSPGERATLSCRASQSVSSNLAWYQQKPGQAPRLLIYGASTRATGIPARFSGSGSGTEFTLTISSLQSEDFAVYYCQQFNLWPFTFGGGTKVEIK	26.6 nM
BIIB-12-1290 (antibody, V domains shown) VH: QVQLVQSGAEVKKPGASVKVSCKASGYTFTSYYMHWVRQAPGQGLEWMGIINPGGGSTSYAQKFQGRVTMTRDTSTSTVYMELSSLRSEDTAVYYCAREGGRYVRGMDVWGQGTTVTVSS VL: DIQMTQSPSSVSASVGDRVTITCRASQGISSWLAWYQQKPGKAPKLLIYAASSLQSGVPSRFSGSGSGTDFTLTISSLQPEDFATYYCQQGFSFPFTFGGGTKVEIK	16.1 nM
BIIB-12-895 (antibody, V domains shown) VH: QVQLVQSGAEVKKPGASVKVSCKASGYTFTSYYMHWVRQAPGQGLEWMGIINPSGGSTSYAQKFQGRVTMTRDTSTSTVYMELSSLRSEDTAVYYCARGGGYKSRGIDYWGQGTLVTVSS VL: DIQMTQSPSSVSASVGDRVTITCRASQGISSWLAWYQQKPGKAPKLLIYAASSLQSGVPSRFSGSGSGTDFTLTISSLQPEDFATYYCQQASSFPFTFGGGTKVEI	26.3 nM
BIIB-12-1323 (antibody, V domains shown) VH: QVQLVQSGAEVKKPGASVKVSCKASGYTFTSYYIHWVRQAPGQGLEWMGIINPSGGSTSYAQKFQGRVTMTRDTSTSTVYMELSSLRSEDTAVYYCARGRRFPRGLDYWGQGTLVTVSS VL: DIQMTQSPSSVSASVGDRVTITCRASQGISSWLAWYQQKPGKAPKLLIYAASSLQSGVPSRFSGSGSGTDFTLTISSLQPEDFATYYCQQANIFPFTFGGGTKVEIK	38.6 nM
BIIB-12-1312 (antibody, V domains shown) VH: QVQLVESGGGVVQPGRSLRLSCAASGFTFSSYGMHWVRQAPGKGLEWVAVISYDGSNKYYADSVKGRFTISRDNSKNTLYLQMNSLRAEDTAVYYCAKGMGHWIDYWGQGTLVTVSS VL: DIQMTQSPSSVSASVGDRVTITCRASQGISSWLAWYQQKPGKAPKLLIYAASSLQSGVPSRFSGSGSGTDFTLTISSLQPEDFATYYCQQASSFPPTFGGGTKVEIK	14.7 nM
BIIB-12-900 (antibody, V domains shown) VH: QVQLVQSGAEVKKPGASVKVSCKASGYTFTSYYMHWVRQAPGQGLEWMGIINPGGGSTSYAQKFQGRVTMTRDTSTSTVYMELSSLRSEDTAVYYCARSGGMYDRELGMDVWGQGTTVTVSS VL: not shown	25.8 nM
BIIB-12-920 (antibody, V domains shown) VH: QVQLVQSGAEVKKPGASVKVSCKASGYTFTSYGISWVRQAPGQGLEWMGWISPYNGNTNYAQKLQGRVTMTTDTSTSTAYMELRSLRSDDTAVYYCARGSGHTTMFWGQGTLVTVSS VL: EIVMTQSPATLSVSPGERATLSCRASQSVSSNLAWYQQKPGQAPRLLIYSASTRATGIPARFSGSGSGTEFTLTISSLQSEDFAVYYCQQANAYPPTFGGGTKVEI	27.7 nM
BIIB-12-934 (antibody, V domains shown) VH: QVQLVESGGGVVQPGRSLRLSCAASGFTFSSYGMHWVRQAPGKGLEWVAVISYDGSNKYYADSVKGRFTISRDNSKNTLYLQMNSLRAEDTAVYYCARESGGHSYGMDVWGQGTTVTVSS VL: EIVLTQSPATLSVSPGERATLSCRASQSVSSNLAWYQQKPGQAPRLLIYGASTRATGIPARFSGSGSGTEFTLTISSLQSEDFAVYYCQQFNDHPITFGGGTKVEI	60.2 nM
BIIB-12-1330 (antibody, V domains shown) VH: QVQLVESGGGVVQPGRSLRLSCAASGFTFSSYGMHWVRQAPGKGLEWVAVISYDGSNKYYADSVKGRFTISRDNSKNTLYLQMNSLRAEDTAVYYCAKGGSARWINIWGQGTTVTVSS VL: not shown	56.8 nM
BIIB-12-928 (antibody, V domains shown) VH: QVQLVEFGVGVVQPGRSLRLSCAASGFTFSSYGMHWVRQAPGKGLEWVAVISYDGSNKYYADSVKGRFTISRDNSKNTLYLQMNSLRAEDTAVYYCAKGGTYLDTWGQGTLVTVSS VL: EIVLTQSPGTLSLSPGERATLSCRASQSVRSSYLAWYQQKPGQAPRLLIYGASSRATGIPDRFSGSGSGTDFTLTISRLEPEDFAVYYCQQYVRFPLTFGGGTKVEIK	23.1 nM
BIIB-12-1288 (antibody, V domains shown) VH: QVQLVQSGAEVKKPGASVKVSCKASGYTFTSYYMHWVRQAPGQGLEWMGIINPSGGSTSYAQKFQGRVTMTRDTSTSTVYMELSSLRSEDTAVYYCARGGANDYGSSSRWWYFDLWGRGTLVTVSS VL: not shown	85.6 nM

Target: free FIXa (activated Factor IX) (UniProt P00740 47-191; P00740 227-461)
Test: BLI

Binder	Kd
BIIB-9-1273 (antibody, V domains shown) VH: QVQLVQSGAEVKKPGASVKVSCKASGYTFTSYYMHWVRQAPGQGLEWMGIINPSGGSTSYAQKFQGRVTMTRDTSTSTVYMELSSLRSEDTAVYYCARDTGGYAFDIWGQGTLVTVSS VL: EIVLTQYPATLSLSPGERATLSCRASQSVSSYLAWYQQKPGQAPRLLIYDASNRATGIPARFSGSGSGTDFTLTISSLEPEDFAVYYCQQSANFPFTFGGGTKVEIK	20.9 nM
BIIB-9-419 (antibody, V domains shown) VH: QVQLVQSGAEVKKPGASVKVSCKASGYTFTSYYMHWVRQAPGQGLEWMGIINPSGGSTSYAQKFQGRVTMTRDTSTSTVYMELSSLRSEDTAVYYCAREPTFYASYFDLWGRGTLVTVS VL: EIVMTQSPATLSLSPGERATLSCRASQSVSSYLAWYQQKPGQAPRLLIYDSSNRATGIPARFSGSGSGTDFTLTISSLEPEDFAVYYCQQVSTHPYTFGGGTKVEIK	21.1 nM
BIIB-9-616 (antibody, V domains shown) VH: QVQLVQSGAEVKKPGASVKVSCKASGYTFTSYYMHWVRQAPGQGLEWMGIINPSGGSTSYAQKFQGRVTMTRDTSTSTVYMELSSLRSEDTAVYYCARGGSKYFFDLWGRGTLVTVSS VL: EIVMTQSPATLSVSPGERATLSCRASQSVSSSLAWYQQKPGQAPRLLIYGASTRATGIPARFSGSGSGTEFTLTISSLQSEDFAVYYCQQADNFPFTFGGGTKVEIK	16.8 nM
BIIB-9-882 (antibody, V domains shown) VH: QVQLVQSGAEVKKPGASVKVSCKASGYTFTSYYMHWVRQAPGQGLEWMGIINPSGGSTSYAQKFQGRVTMTRDTSTSTVYMELSSLRSEDTAVYYCARGPTDSSGYLDMDVWGKGTTVTVSS VL: EIVMTQSPATLSVSPGERATLSCRASQSVSSNLAWYQQKPGQAPRLLIFGASTRATGIPARFSGSGSGTEFTLTISSLQSEDFAVYYCQQHDNFPPTFGGGTKVEIK	2.31 nM
BIIB-9-627 (antibody, V domains shown) VH: QVQLVQSGAEVKKPGASVKVSCKASGYTFTSYYMHWVRQAPGQGLEWMGIINPSGGSTSYAQKFQGRVTMTRDTSTSTVYMELSSLRSEDTAVYYCARADYDYWSGYGGLGMDVWGQGTTVTVSS VL: not shown	233 nM
BIIB-9-625 (antibody, V domains shown) VH: QLQLQESGPGLVKPSETLSLTCTVSGGSISSSSYAWGWIRQPPGKGLEWIGSIYYSGSTYYNPSLKSRVTISVDTSKNQFSLKLSSVTAADTAVYYCARDRGWYTEVLDIWGQGTMVTVSS VL: DIQMTQSPSSLSASVGDRVTITCRASQSISSYLNWYQQKPGKAPKLLIYAASSLQSGVPSRFSGSGSGTDFTLTISSLQPEDFATYYCQQSDTDPPTFGGGTKVEIK	11.3 nM
BIIB-9-446 (antibody, V domains shown) VH: QVQLVQSGAEVKKPGSSVKVSCKASGGTFSSYAISWVRQAPGQGLEWMGGIIPIFGTASYAQKFQGRVTITADESTSTAYMELSSLRSEDTAVYYCARGLEVGYYGYFDYWGQGTLVTVSS VL: not shown	17.5 nM

— patent US20230192896A1 (published 2023)
